Reference: PMC8660260 (2021)

T1: NSP12 peptide on HLA-A*02:01 (human)
T1 peptide: TMADLVYAL

T2: NSP12 peptide on HLA-A*02:01 (human)
T2 peptide: FVDGVPFVV

B1: CoVTCR 12 (TCR)
alpha TRAV17 TRAJ57 CDR3: CATVLPTQGGSEKLVF
beta TRBV18 TRBJ1-1 CDR3: CASSLTVNMNTEAFF
B2: CoVTCR 18 (TCR)
alpha TRAV12-1 TRAJ45 CDR3: CVLPSGGGADGLTF
beta TRBV5-1 TRBJ2-1 CDR3: CASTGLAGGPYNEQFF
B3: CoVTCR 19 (TCR)
alpha TRAV35 TRAJ43 CDR3: CAGQLARDMRF
beta TRBV13 TRBJ2-7 CDR3: CASRWAGGTAYEQYF

Assays:
[1] = biological target: T1, NSP12 peptide on HLA-A*02:01; experiment: activation reporter or marker
[2] = biological target: T2, NSP12 peptide on HLA-A*02:01; experiment: activation reporter or marker

Binder | binding result [1] | binding result [2]
B1 | recognises | 
B2 |  | recognises
B3 |  | recognises
